Changes are numbered by the printed parent chain.
Key:
Assay in all cases: ELISA, plate-bound chemokine (1 ug/ml), antibody 10 ug/ml, OD450
[1] = biological target: T1, recombinant human CCL7 (human, UniProt P80098 24-99)
T1 construct: also called MARC
Method: (§1) The wells of a 96-well plate were coated with 1 μg/ml of the recombinant human chemokines in PBS (−). After overnight incubation at 4° C., the wells were blocked with 1× Block-Ace (Dainippon Sumitomo Pharma, UK-B80) for 1 hour at room temperature. After washing twice with 0.02% Tween 20/PBS (−), we added 50 μl of 10 μg/ml purified 36F7C10, chimeric 36F710, HC2/LK3, or HC2/LC3 in 0.02% Tween 20/PBS (−) to each well. The wells were incubated for 1 hour at room temperature and washed three times as described in Example 3. […] After washing five times, a TMBZ (3,3′,5,5′-tetramethylbenzidine) solution (1%, in N,N-Dimethylformamide) was added to the wells and incubated for 15-30 minutes. The reaction was stopped by adding an equal volume of a 2 M H₂SO₄ stopping solution, and the optical density was read at 450 nm by ARVO (PerkinElmer).

[2] = biological target: T2, recombinant human CCL17 (human, UniProt Q92583 24-94)
T2 construct: also called TARC
T2 sequence (looked up): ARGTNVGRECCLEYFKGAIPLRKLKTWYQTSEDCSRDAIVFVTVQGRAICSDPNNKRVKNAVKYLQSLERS
Method: as §1

[3] = biological target: T3, recombinant human CXCL12 (human, UniProt P48061-2 22-89)
T3 construct: also called SDF-1/PBSF
T3 sequence (P48061 22-89 limits assumed): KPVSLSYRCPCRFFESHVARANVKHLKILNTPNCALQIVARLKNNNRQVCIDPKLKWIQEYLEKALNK
Method: as §1

[4] = biological target: T4, recombinant human CXCL1 (human, UniProt P09341 35-107)
T4 construct: also called GROα
T4 sequence (looked up): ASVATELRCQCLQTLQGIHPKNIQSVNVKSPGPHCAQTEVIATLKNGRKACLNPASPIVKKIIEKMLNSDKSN
Method: as §1

[5] = biological target: T5, recombinant human CCL27 (human, UniProt Q9Y4X3 25-112)
T5 construct: also called CTACK
T5 sequence (looked up): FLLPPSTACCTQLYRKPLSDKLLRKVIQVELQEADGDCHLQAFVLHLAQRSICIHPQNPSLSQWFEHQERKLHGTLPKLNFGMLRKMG
Method: as §1

[6] = biological target: T6, recombinant human CCL2 (human, UniProt P13500 24-99)
T6 construct: also called MCP-1/MCAF/JE
T6 sequence (P13500 24-99 limits assumed): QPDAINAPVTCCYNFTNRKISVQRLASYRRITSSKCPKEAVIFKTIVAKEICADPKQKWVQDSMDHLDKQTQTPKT
Method: as §1

[7] = biological target: T7, recombinant human CXCL2 (human, UniProt P19875 35-107)
T7 construct: also called GROβ
T7 sequence (looked up): T4 sequence (looked up) with S2P, V3L, P20L, N27K, R48Q, I58M, N68K, S69N, D70G
Method: as §1

[8] = biological target: T8, recombinant human CCL13 (human, UniProt Q99616 24-98)
T8 construct: also called MCP-4
T8 sequence (Q99616 24-98 limits assumed): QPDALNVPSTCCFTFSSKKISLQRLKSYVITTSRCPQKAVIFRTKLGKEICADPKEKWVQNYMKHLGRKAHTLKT
Method: as §1

[9] = biological target: T9, recombinant human CCL25 (human, UniProt O15444 24-150)
T9 construct: also called TECK
T9 sequence (looked up): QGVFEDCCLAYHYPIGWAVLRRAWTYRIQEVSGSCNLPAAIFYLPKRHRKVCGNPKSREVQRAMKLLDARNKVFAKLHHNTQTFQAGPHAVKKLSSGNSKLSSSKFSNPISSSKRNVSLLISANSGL
Method: as §1

[10] = biological target: T10, recombinant human CCL3 (human, UniProt P10147 27-92, limits assumed)
T10 construct: also called MIP-1a
T10 sequence (looked up): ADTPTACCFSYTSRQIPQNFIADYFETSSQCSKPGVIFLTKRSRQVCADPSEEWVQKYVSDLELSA
Method: as §1

[11] = biological target: T11, recombinant human CXCL13 (human, UniProt O43927 23-109)
T11 construct: also called BCA-1/BLC
T11 sequence (looked up): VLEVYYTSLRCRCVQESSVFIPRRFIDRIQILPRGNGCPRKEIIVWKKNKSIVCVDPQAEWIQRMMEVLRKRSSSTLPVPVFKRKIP
Method: as §1

[12] = biological target: T12, recombinant human CCL24 (human, UniProt O00175 27-119, limits assumed)
T12 construct: also called Eotaxin-2/MPIF-2
T12 sequence (looked up): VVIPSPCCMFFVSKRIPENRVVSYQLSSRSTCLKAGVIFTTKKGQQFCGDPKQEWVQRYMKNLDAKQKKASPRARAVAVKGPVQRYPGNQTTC
Method: as §1

[13] = biological target: T13, recombinant human CCL21 (human, UniProt O00585 24-134)
T13 construct: also called 6Ckine/SLC
T13 sequence (looked up): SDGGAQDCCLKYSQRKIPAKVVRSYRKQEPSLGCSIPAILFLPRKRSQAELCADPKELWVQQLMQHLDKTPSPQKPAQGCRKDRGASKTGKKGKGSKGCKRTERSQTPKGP
Method: as §1

[14] = biological target: T14, recombinant human CX3CL1 (Chemokine Domain) (human, UniProt P78423 25-100)
T14 construct: domain: Chemokine Domain; also called FKN
T14 sequence (looked up): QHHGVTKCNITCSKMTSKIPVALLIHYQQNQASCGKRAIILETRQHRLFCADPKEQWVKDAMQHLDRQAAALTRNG
Method: as §1

Measured: binding result

T1 sequence (P80098 24-99 limits assumed): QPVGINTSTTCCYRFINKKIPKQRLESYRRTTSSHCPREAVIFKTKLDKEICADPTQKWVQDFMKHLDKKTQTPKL

B1: humanized anti-human CCL20 antibody 36LK3/36HC2 (antibody, human IgG1, kappa, V domains shown)
VH: QVQLVQSGAEVKKPGASVKVSCKASGYTFTNYWMHWVRQAPGQGLEWMGVIDPSDSYTTYAQKFQGRVTMTVDTSTSTVYMELSSLRSEDTAVYYCARGNYGVDYAMDYWGQGTLVTVSS
VL: DIQMTQSPSSLSASVGDRVTITCGASENIYGALNWYQRKPGKAPKLLIYGATNLADGVPSRFSGSGSGRDYTLTISSLQPEDFATYYCQNVLITPYTFGQGTKLEIKR
notes: expressed in HEK293 cells; also called HC2/LK3; HC2LK3
no binding (tested: 10 ug/ml): [1] | [2] | [3] | [4] | [5] | [6] | [7] | [8] | [9] | [10] | [11] | [12] | [13] | [14]

B2: humanized anti-human CCL20 antibody 36LC3/36HC2 (antibody, human IgG1, kappa, V domains shown)
VH: B1 VH
VL: B1 VL with G24R, R38Q, D70Q, T72S, Q100G
notes: expressed in HEK293 cells; also called HC2/LC3; HC2LC3
no binding (tested: 10 ug/ml): [1] | [2] | [3] | [4] | [5] | [6] | [7] | [8] | [9] | [10] | [11] | [12] | [13] | [14]

B3: mouse anti-human CCL20 monoclonal antibody 36F7C10 (antibody, V domains shown)
VH: QVQLQQPGAELVKPGASVKMSCKASGYTFTNYWMHWVKQRPGQGLEWIGVIDPSDSYTTYNQKFKGKATLTVDTSSSTAYMQLSSLTSEDSAVYYCTRGNYGVDYAMDYWGQGTSVTVSS
VL: DIQMTQSPASLSASVGETVTITCGASENIYGALNWYQRKQGKSPQLLIYGATNLADGMSSRFSGSGSGRQYSLKISSLHPDDVATYYCQNVLITPYTFGGGTKLEIK
notes: Mouse hybridoma antibody; also called MouseMAb; parental mouse clone 36F7C10
no binding (tested: 10 ug/ml): [1] | [2] | [3] | [4] | [5] | [6] | [7] | [8] | [9] | [10] | [11] | [12] | [13] | [14]

B4: chimeric 36F7C10 antibody (36F7C10-hFc) (antibody, V domains shown)
VH: B3 VH
VL: B3 VL
notes: also called chimeric 36F710; Chimeric MAb
no binding (tested: 10 ug/ml): [1] | [2] | [3] | [4] | [5] | [6] | [7] | [8] | [9] | [10] | [11] | [12] | [13] | [14]
